Data published in the supplement of paper PMC5998384.

Assays:
[1] = system: HeLa Kyoto; experiment: solubility in G1/S (NP-40 vs SDS abundance) (log2 ratio); higher = more soluble; conditions: cell cycle stage: G1/S
[2] = system: HeLa Kyoto; experiment: thermal stability score vs G1/S (z-score of summed log2 fold changes over temperatures); higher = more thermally stable than in G1/S
[3] = system: HeLa Kyoto; experiment: solubility change mitosis vs G1/S (difference of NP-40 vs SDS log2 ratios) (log2 ratio difference); higher = more soluble in mitosis
[4] = system: HeLa Kyoto; experiment: melting temperature (median over replicates), in situ; higher = more thermally stable
[5] = cell cycle stage: early G1 (4.5 h after nocodazole release)
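For melting temperature (median over replicates), in situ in this document: HeLa Kyoto cells synchronized by double thymidine or nocodazole block, proteins quantified by TMT10plex mass spectrometry, three independent biological replicates.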
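For solubility change mitosis vs G1/S (difference of NP-40 vs SDS log2 ratios) in this document: synchronized HeLa Kyoto cells (double thymidine block for G1/S, nocodazole release for mitosis), protein amounts in NP-40 versus SDS lysates quantified by mass spectrometry, three biological replicates.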
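For solubility in G1/S (NP-40 vs SDS abundance) in this document: HeLa Kyoto cells arrested at G1/S by double thymidine block, proteins quantified by TMT10plex mass spectrometry in mild NP-40 versus SDS extracts, three biological replicates.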
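For thermal stability score vs G1/S (z-score of summed log2 fold changes over temperatures) in this document: synchronized HeLa Kyoto cells, proteins quantified by TMT10plex mass spectrometry, three biological replicates, mitosis taken 0.5 h after nocodazole release, G1/S directly after double thymidine block.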

Sequence	solubility in G1/S (log2) [1]	thermal stability score [2, 5]	thermal stability score ([2]; cell cycle stage: mitosis)	solubility change mitosis (log2) [3]	melting temperature ([4]; cell cycle stage: G1/S)	melting temperature ([4]; cell cycle stage: mitosis)
MLNVPSQSFPAPRSQQRVASGGRSKVPLKQGRSLMDWIRLTKSGKDLTGLKGRLIEVTEEELKKHNKKDDCWICIRGFVYNVSPYMEYHPGGEDELMRAAGSDGTELFDQVHRWVNYESMLKECLVGRMAIKPAVLKDYREEEKKVLNGMLPKSQVTDTLAKEGPSYPSYDWFQTDSLVTIAIYTKQKDINLDSIIVDHQNDSFRAETIIKDCLYLIHIGLSHEVQEDFSVRVVESVGKIEIVLQKKENTSWDFLGHPLKNHNSLIPRKDTGLYYRKCQLISKEDVTHDTRLFCLMLPPSTHLQVPIGQHVYLKLPITGTEIVKPYTPVSGSLLSEFKEPVLPNNKYIYFLIKIYPTGLFTPELDRLQIGDFVSVSSPEGNFKISKFQELEDLFLLAAGTGFTPMVKILNYALTDIPSLRKVKLMFFNKTEDDIIWRSQLEKLAFKDKRLDVEFVLSAPISEWNGKQGHISPALLSEFLKRNLDKSKVLVCICGPVPFTEQGVRLLHDLNFSKNEIHSFTA [CYB5R4]	0.0176	-0.0239	-0.629	-0.0937	53.6 °C	53.7 °C
MLPARLPFRLLSLFLRGSAPTAARHGLREPLLERRCAAASSFQHSSSLGRELPYDPVDTEGFGEGGDMQERFLFPEYILDPEPQPTREKQLQELQQQQEEEERQRQQRREERRQQNLRARSREHPVVGHPDPALPPSGVNCSGCGAELHCQDAGVPGYLPREKFLRTAEADGGLARTVCQRCWLLSHHRRALRLQVSREQYLELVSAALRRPGPSLVLYMVDLLDLPDALLPDLPALVGPKQLIVLGNKVDLLPQDAPGYRQRLRERLWEDCARAGLLLAPGHQGPQRPVKDEPQDGENPNPPNWSRTVVRDVRLISAKTGYGVEELISALQRSWRYRGDVYLVGATNAGKSTLFNTLLESDYCTAKGSEAIDRATISPWPGTTLNLLKFPICNPTPYRMFKRHQRLKKDSTQAEEDLSEQEQNQLNVLKKHGYVVGRVGRTFLYSEEQKDNIPFEFDADSLAFDMENDPVMGTHKSTKQVELTAQDVKDAHWFYDTPGITKENCILNLLTEKEVNIVLPTQSIVPRTFVLKPGMVLFLGAIGRIDFLQGNQSAWFTVVASNILPVHITSLDRADALYQKHAGHTLLQIPMGGKERMAGFPPLVAEDIMLKEGLGASEAVADIKFSSAGWVSVTPNFKDRLHLRGYTPEGTVLTVRPPLLPYIVNIKGQRIKKSVAYKTKKPPSLMYNVRKKKGKINV [NOA1]	0.131	-0.456	0.655	-0.187	49.8 °C	50.1 °C
MLPGLAAAAAHRCSWSSLCRLRLRCRAAACNPSDRQEWQNLVTFGSFSNMVPCSHPYIGTLSQVKLYSTNVQKEGQGSQTLRVEKVPSFETAEGIGTELKAPLKQEPLQVRVKAVLKKREYGSKYTQNNFITGVRAINEFCLKSSDLEQLRKIRRRSPHEDTESFTVYLRSDVEAKSLEVWGSPEALAREKKLRKEAEIEYRERLFRNQKILREYRDFLGNTKPRSRTASVFFKGPGKVVMVAICINGLNCFFKFLAWIYTGSASMFSEAIHSLSDTCNQGLLALGISKSVQTPDPSHPYGFSNMRYISSLISGVGIFMMGAGLSWYHGVMGLLHPQPIESLLWAYCILAGSLVSEGATLLVAVNELRRNARAKGMSFYKYVMESRDPSTNVILLEDTAAVLGVIIAATCMGLTSITGNPLYDSLGSLGVGTLLGMVSAFLIYTNTEALLGRSIQPEQVQRLTELLENDPSVRAIHDVKATDLGLGKVRFKAEVDFDGRVVTRSYLEKQDFDQMLQEIQEVKTPEELETFMLKHGENIIDTLGAEVDRLEKELKKRNPEVRHVDLEIL [SLC30A9]	-0.0134	-0.0363	-0.00857	-0.0502	51.1 °C	51.9 °C
MLPHVVLTFRRLGCALASCRLAPARHRGSGLLHTAPVARSDRSAPVFTRALAFGDRIALVDQHGRHTYRELYSRSLRLSQEICRLCGCVGGDLREERVSFLCANDASYVVAQWASWMSGGVAVPLYRKHPAAQLEYVICDSQSSVVLASQEYLELLSPVVRKLGVPLLPLTPAIYTGAVEEPAEVPVPEQGWRNKGAMIIYTSGTTGRPKGVLSTHQNIRAVVTGLVHKWAWTKDDVILHVLPLHHVHGVVNALLCPLWVGATCVMMPEFSPQQVWEKFLSSETPRINVFMAVPTIYTKLMEYYDRHFTQPHAQDFLRAVCEEKIRLMVSGSAALPLPVLEKWKNITGHTLLERYGMTEIGMALSGPLTTAVRLPGSVGTPLPGVQVRIVSENPQREACSYTIHAEGDERGTKVTPGFEEKEGELLVRGPSVFREYWNKPEETKSAFTLDGWFKTGDTVVFKDGQYWIRGRTSVDIIKTGGYKVSALEVEWHLLAHPSITDVAVIGVPDMTWGQRVTAVVTLREGHSLSHRELKEWARNVLAPYAVPSELVLVEEIPRNQMGKIDKKALIRHFHPS [ACSF3]	-0.107	-0.21	1.59	-0.0957	49.3 °C	49.7 °C
MLPVYQEVKPNPLQDANLCSRVFFWWLNPLFKIGHKRRLEEDDMYSVLPEDRSQHLGEELQGFWDKEVLRAENDAQKPSLTRAIIKCYWKSYLVLGIFTLIEESAKVIQPIFLGKIINYFENYDPMDSVALNTAYAYATVLTFCTLILAILHHLYFYHVQCAGMRLRVAMCHMIYRKALRLSNMAMGKTTTGQIVNLLSNDVNKFDQVTVFLHFLWAGPLQAIAVTALLWMEIGISCLAGMAVLIILLPLQSCFGKLFSSLRSKTATFTDARIRTMNEVITGIRIIKMYAWEKSFSNLITNLRKKEISKILRSSCLRGMNLASFFSASKIIVFVTFTTYVLLGSVITASRVFVAVTLYGAVRLTVTLFFPSAIERVSEAIVSIRRIQTFLLLDEISQRNRQLPSDGKKMVHVQDFTAFWDKASETPTLQGLSFTVRPGELLAVVGPVGAGKSSLLSAVLGELAPSHGLVSVHGRIAYVSQQPWVFSGTLRSNILFGKKYEKERYEKVIKACALKKDLQLLEDGDLTVIGDRGTTLSGGQKARVNLARAVYQDADIYLLDDPLSAVDAEVSRHLFELCICQILHEKITILVTHQLQYLKAASQILILKDGKMVQKGTYTEFLKSGIDFGSLLKKDNEESEQPPVPGTPTLRNRTFSESSVWSQQSSRPSLKDGALESQDTENVPVTLSEENRSEGKVGFQAYKNYFRAGAHWIVFIFLILLNTAAQVAYVLQDWWLSYWANKQSMLNVTVNGGGNVTEKLDLNWYLGIYSGLTVATVLFGIARSLLVFYVLVNSSQTLHNKMFESILKAPVLFFDRNPIGRILNRFSKDIGHLDDLLPLTFLDFIQTLLQVVGVVSVAVAVIPWIAIPLVPLGIIFIFLRRYFLETSRDVKRLESTTRSPVFSHLSSSLQGLWTIRAYKAEERCQELFDAHQDLHSEAWFLFLTTSRWFAVRLDAICAMFVIIVAFGSLILAKTLDAGQVGLALSYALTLMGMFQWCVRQSAEVENMMISVERVIEYTDLEKEAPWEYQKRPPPAWPHEGVIIFDNVNFMYSPGGPLVLKHLTALIKSQEKVGIVGRTGAGKSSLISALFRLSEPEGKIWIDKILTTEIGLHDLRKKMSIIPQEPVLFTGTMRKNLDPFNEHTDEELWNALQEVQLKETIEDLPGKMDTELAESGSNFSVGQRQLVCLARAILRKNQILIIDEATANVDPRTDELIQKKIREKFAHCTVLTIAHRLNTIIDSDKIMVLDSGRLKEYDEPYVLLQNKESLFYKMVQQLGKAEAAALTETAKQVYFKRNYPHIGHTDHMVTNTSNGQPSTLTIFETAL [ABCC4]	-0.0872	-1.17	-1.43	-0.177	57.5 °C	55.8 °C
